14 molecules from US20240309095A1 (Incyte, published 2024) can be followed below.

Sequences and labels used below:
B1: A06 scFv-Fc (scFv, V domains shown)
VH: EVQLVESGGGVVQPGRSLRLSCAASGFTFGDRAMNWVRQAPGKGLEWVSAISGTGATTYYADSVKGRFTISRDNSKNTLYLQMNSLRAEDTAVYYCARKRWYGMDVWGQGTTVTVSS
VL: SYELTQPPSVSVAPGKTARITCGGNNIVTKSVHWYQQKPGQAPVLVVYDDSDRPSGIPERFSGSNSGNTATLTISRVEAGDEADYYCQVWDRGMIFGTGTKLTVL
notes: Tested as scFv-Fc fusion (human IgG1 Fc, vector pDNL9) in crude yeast supernatant; Combo 1 library
B2: Parental (H6.1) scFv-Fc (scFv, V domains shown)
VH: B1 VH with G30S, D31S, R32Y, A33S, T54S, A56G, T57S
VL: SYELTQPPSVSVAPGKTARITCGGNNIGSKSVHWYQQKPGQAPVLVVYDDSDRPSGIPERFSGSNSGNTATLTISRVEAGDEADYYCQVWDSRTYVFGTGTKLTVL
notes: Expressed with the 24 clones as scFv-Fc fusion (human IgG1 Fc) in yeast for SPR; also called parental antibody; parental molecule
B3: B02 scFv-Fc (scFv, V domains shown)
VH: B1 VH with G30S, D31S, A33S, T54S, A56S, T58V
VL: B2 VL with S29V, P54S, S55P
notes: as for B1
B4: A07 scFv-Fc (scFv, V domains shown)
VH: B1 VH with G30S, D31S, A33S, T54S, A56S, T58V
VL: B2 VL
notes: Tested as scFv-Fc fusion (human IgG1 Fc, vector pDNL9) in crude yeast supernatant; Combo 2 library
B5: B01 scFv-Fc (scFv, V domains shown)
VH: B1 VH with G30S, G53Y, T54E, A56R, T58Q
VL: B2 VL with S29V
notes: as for B1
B6: B12 scFv-Fc (scFv, V domains shown)
VH: B1 VH with G30S, T57S
VL: B1 VL with V28G, T29S
notes: as for B4
B7: B09 scFv-Fc (scFv, V domains shown)
VH: B1 VH with F29Y, G30S, D31S, G53S, T54S, A56T
VL: B1 VL with V28G, T29S
notes: as for B4
B8: A12 scFv-Fc (scFv, V domains shown)
VH: B1 VH with G30D, D31N, G53S, T54S, A56S, T58M
VL: B2 VL
notes: as for B4
B9: B10 scFv-Fc (scFv, V domains shown)
VH: B1 VH with G30S, D31T, A56D
VL: B2 VL with D91G, S92R, R93Y, T94Q, Y95M, V96I
notes: as for B4
B10: B06 scFv-Fc (scFv, V domains shown)
VH: B1 VH with G30S, D31N, R32K, T54S
VL: B1 VL with V28G, T29V, S31A
notes: as for B1
B11: B11 scFv-Fc (scFv, V domains shown)
VH: B1 VH with G30T, D31S, T54S, T58A
VL: B1 VL with V28G, T29S
notes: as for B4
B12: B08 scFv-Fc (scFv, V domains shown)
VH: B1 VH with G30S, G53A, T54S, T57S, T58R
VL: B1 VL with V28G, T29S
notes: as for B4
B13: B05 scFv-Fc (scFv, V domains shown)
VH: B1 VH with F27L, G30S, D31S
VL: B1 VL with V28G, T29S, S31M
notes: as for B1
B14: G05 scFv-Fc (scFv, V domains shown)
VH: B1 VH with G30S, D31S, A33S, T54S, A56S, T58V
VL: B2 VL with N26K, I27L, S29D, S31W, D49E, S51V
notes: Tested as scFv-Fc fusion (human IgG1 Fc, vector pDNL9) in crude yeast supernatant; Combo 1 library; also called G5

The term Kd denotes the constant that tells how readily two partners part at equilibrium. What is called kon is a measure of how fast the partners come together. Usually koff stands for the rate constant with which the complex falls apart.

Numbering of substitutions follows the chain as printed. Where only a bound is given, the exact number is not on record here.

For the first experiment, the target named is T1, human B7-H4 (purified monomeric recombinant human protein, ACRO biosystems) (human, UniProt Q7Z7D3 29-258, limits assumed, chemically biotinylated (EZ-Link NHS-LC-Biotin) in the yeast display and competition experiments; non-biotinylated in SPR).
T1 construct: Bought recombinant monomeric protein; also called B7x; B7S1
T1 sequence: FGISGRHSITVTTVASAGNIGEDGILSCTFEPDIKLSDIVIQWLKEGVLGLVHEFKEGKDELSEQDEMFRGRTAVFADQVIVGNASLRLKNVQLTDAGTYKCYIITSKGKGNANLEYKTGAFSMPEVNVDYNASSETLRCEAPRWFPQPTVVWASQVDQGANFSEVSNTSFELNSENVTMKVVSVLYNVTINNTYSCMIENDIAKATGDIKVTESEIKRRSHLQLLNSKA
Kind of experiment: SPR (Carterra LSA); scFv-Fc captured on anti-human IgG Fc, antigen injected. As for the experimental part: (§1) Finally, the affinity of the 24 clones was determined using high-throughput surface plasmon resonance (SPR). The supernatants were arrayed by non-covalent capture in a medium-density SPR chip previously coupled with an anti-human polyclonal antibody and (at least 4 replicates per clone). Non-biotinylated antigen was used for all affinity measurements and sensorgrams were fitted using a pseudo-first-order kinetic model (Lundström 1994). […] In fact, it is notable that the off rates for some of the tested antibodies are probably better than 10⁻⁵ (Table 7), as indicated by the bunching of matured antibodies at that value (Table 7)—such slow off rates are challenging to accurately measure using SPR. No affinity difference was observed between clones coming from one combo library versus the other.
(§2) The scFv from the final population (round 3, combo libraries) was bulk cloned into a yeast expression vector containing a human IgG1 Fc region to be expressed in the scFv-Fc format. For this, the scFv region was amplified by PCR, digested with BssHII and NheI restriction enzyme (New England Biolabs), and cloned into the pDNL9 vector, 92 clones were analyzed by Sanger sequencing and 24 of these plus the parental were expressed using S. cerevisiae strain YVH10 (ATCC MYA-4940). scFv-Fc fusions were expressed for 72 h at 20° C. in the presence of galactose. The Carterra LSA surface resonance system was used for the affinity measurements. Briefly, anti-Human IgG Fc (Southern Biotech, #2048-01) was covalently coupled to an HC30M chip following the manufacturer's protocols. Crude yeast supernatants containing the scFv-Fc fusions were arrayed on the chip.
With B1, the KD fold-improvement came to 221 fold over parental, the Kd was at most 0.034 nM and the association rate constant (kon) was determined as 320000 M⁻¹ s⁻¹.

Consider B2, for which the KD fold-improvement amounted to 1 fold over parental, the Kd came out at 7.43 nM, the off-rate constant (koff) was found to be 0.0033 s⁻¹ and the association rate constant (kon) turned out to be 450000 M⁻¹ s⁻¹.

On to B3, for which the KD fold-improvement came out at 127 fold over parental, the dissociation constant (Kd) came to 0.059 nM, the koff stood at 1.1e-05 s⁻¹ and the kon was found to be 180000 M⁻¹ s⁻¹.

As to B4, the KD fold-improvement is 27 fold over parental, the dissociation constant (Kd) was 0.277 nM, the off-rate (koff) came to 4.7e-05 s⁻¹ and the on-rate (kon) was found to be 170000 M⁻¹ s⁻¹.

Regarding B5, the KD fold-improvement came out at 231 fold over parental, the dissociation constant (Kd) is at most 0.032 nM and the kon worked out at 310000 M⁻¹ s⁻¹.

Regarding B6, the KD fold-improvement was 89 fold over parental, the Kd was determined as 0.084 nM, the dissociation rate constant (koff) was 2.8e-05 s⁻¹ and the kon turned out to be 340000 M⁻¹ s⁻¹.

With B7, the KD fold-improvement came out at 63 fold over parental, the Kd turned out to be 0.118 nM, the off-rate (koff) is 2.5e-05 s⁻¹ and the kon amounted to 210000 M⁻¹ s⁻¹.

Consider B8, for which the KD fold-improvement turned out to be 53 fold over parental, the Kd is 0.139 nM, the koff amounted to 3.2e-05 s⁻¹ and the association rate constant (kon) was 230000 M⁻¹ s⁻¹.

Regarding B9, the KD fold-improvement came to 64 fold over parental, the dissociation constant (Kd) turned out to be 0.116 nM, the koff is 2.9e-05 s⁻¹ and the on-rate constant (kon) was found to be 260000 M⁻¹ s⁻¹.

As for B10, the KD fold-improvement came out at 76 fold over parental, the Kd was 0.097 nM, the off-rate constant (koff) was 1.7e-05 s⁻¹ and the kon came to 170000 M⁻¹ s⁻¹.

Consider B11, for which the KD fold-improvement was 109 fold over parental, the Kd is 0.068 nM, the koff stood at 1.2e-05 s⁻¹ and the kon stood at 180000 M⁻¹ s⁻¹.

As to B12, the KD fold-improvement is 64 fold over parental, the Kd worked out at 0.117 nM, the koff stood at 1.8e-05 s⁻¹ and the kon was 150000 M⁻¹ s⁻¹.

Turning to B13, the KD fold-improvement worked out at 109 fold over parental, the dissociation constant Kd was at most 0.068 nM and the association rate constant (kon) is 150000 M⁻¹ s⁻¹.

Turning to B14, the KD fold-improvement amounted to 119 fold over parental, the Kd is at most 0.063 nM and the kon was determined as 160000 M⁻¹ s⁻¹.

The target of the next experiment is T1, human B7-H4 (purified monomeric …). Kind of experiment: SPR (Carterra LSA); scFv-Fc captured on anti-human IgG Fc, antigen injected; asterisk: reached minimum allowed dissociation rate. As for the experimental part: as §1, §2
With B5, the off-rate constant (koff) was at most 1e-05 s⁻¹.

As to B13, the off-rate constant (koff) is at most 1e-05 s⁻¹.

With B14, the off-rate (koff) is at most 1e-05 s⁻¹.

The target is the same in a further experiment. The experiment can be described thus: SPR (Carterra LSA); scFv-Fc captured on anti-human IgG Fc, antigen injected; asterisk: reached minimum allowed dissociation rate; asterisk: kd at the minimum value allowed (10^-5 s^-1). As for the experimental part: as §1
The scFv from the final population (round 3, combo libraries) was bulk cloned into a yeast expression vector containing a human IgG1 Fc region to be expressed in the scFv-Fc format. For this, the scFv region was amplified by PCR, digested with BssHII and NheI restriction enzyme (New England Biolabs), and cloned into the pDNL9 vector, 92 clones were analyzed by Sanger sequencing and 24 of these plus the parental were expressed using S. cerevisiae strain YVH10 (ATCC MYA-4940). scFv-Fc fusions were expressed for 72 h at 20° C. in the presence of galactose. […]
On to B1, for which the koff was at most 1e-05 s⁻¹.
